Results from patent US20170107282A1 (CELL MEDICA SWITZERLAND, published 2017).

Legend:
[1] = target: recombinant human (rh) TNF alpha (human, UniProt P01375 77-233, limits assumed); experiment: cell-based or functional assay
[2] = target: transmembrane (tm) human TNF alpha, A1-12 variant, on CHO cells (human, UniProt P01375 1-233); experiment: cell-based or functional assay
[3] = target: T1, recombinant human CD40 ligand/TNFSF5 (human, UniProt P29965 108-261, limits assumed); experiment: direct ELISA, protein coated
T1 construct: Bought protein; also called R&D systems cat; No. 6420-CL-025/CF
T1 sequence (looked up): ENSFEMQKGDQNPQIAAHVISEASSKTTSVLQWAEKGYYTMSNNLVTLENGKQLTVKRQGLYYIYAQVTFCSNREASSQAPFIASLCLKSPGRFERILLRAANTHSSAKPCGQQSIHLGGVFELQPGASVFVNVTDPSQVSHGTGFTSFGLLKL
Description: (§1) The cross-reactivity profile of the five selected scFvs to TNF alpha homologs of other species than human beings was assessed using ELISA. The following recombinantly expressed TNF alpha proteins were investigated: rhesus macaque (R&D Systems, USA, cat. no. 1070-RM-025/CF), cynomolgus monkey (Sinobiological, cat.no. 90018 CNAE), canine (Kingfisher Biotech, USA, cat. no. RP0261D-025) and feline (R&D systems, cat. No, 2586FTCF), rabbit (Kingfisher, cat. no RPO429U), rat (Peprotech, cat. no 400-14) murine (Peprotech, cat. no 315-01A), guinea pig (R&D Systems, cat. no 5035-TG-025/CF), porcine (R&D Systems, cat. no 690-PT-025/CF). Briefly, proteins were coated at a concentration of 2 mcg/mL over night at 4° C. on Maxisorp 96-well microplates in PBS pH 7.2. After blocking with 5% non-fat dry milk, increasing concentrations of scFv (0.1, 0.3 and 1.0 mcg/mL) were added to the wells. Successful coating of every protein was separately confirmed with TNF alpha-specific control antibodies. Whereas scFv1 was detected by Protein L-HRP (Sigma-Aldrich, USA, cat. no. P3226), the full-length IgG control antibodies were detected by either Streptavidin-HRP (BD Pharmingen, USA, cat. no. 554060) or other eligible secondary antibodies labelled with HRP. The ELISA was developed with BM Blue POD substrate (Roche Applied Science) and the absorbance was measured at 450 nm. The cross-reactivity of scFvs 1-5 was compared to the scFv DLX2481. […] The scFv DLX2481 recognized only recombinant human TNF alpha. In addition, the cross-reactivity of scFv1 to TNF family members was measured by a direct ELISA with coated recombinant human lymphotoxin α2/β1 (R&D systems, USA, cat. No 679-TX-010/CF), recombinant human lymphotoxin α2/β1 (R&D systems, cat. No 678-LY-010/CF), recombinant human CD40 ligand/TNFSF5 (R&D systems, cat. No. 6420-CL-025/CF) and recombinant human TNF beta/TNFSF1 (R&D systems, cat.

[4] = target: T2, recombinant human lymphotoxin α2/β1 (R&D systems, cat. No 678-LY-010/CF) (human, UniProt P01374 35-205; Q06643 49-244, limits assumed); experiment: direct ELISA, protein coated
T2 construct: This second one is probably α1/β2, so copy numbers are left open; also called second lymphotoxin preparation
T2 sequence (looked up) 1: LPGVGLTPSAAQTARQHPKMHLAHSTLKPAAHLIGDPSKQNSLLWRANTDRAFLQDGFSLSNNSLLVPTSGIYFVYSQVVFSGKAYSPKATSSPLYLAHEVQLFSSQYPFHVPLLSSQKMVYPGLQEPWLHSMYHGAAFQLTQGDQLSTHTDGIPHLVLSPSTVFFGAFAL
T2 sequence (looked up) 2: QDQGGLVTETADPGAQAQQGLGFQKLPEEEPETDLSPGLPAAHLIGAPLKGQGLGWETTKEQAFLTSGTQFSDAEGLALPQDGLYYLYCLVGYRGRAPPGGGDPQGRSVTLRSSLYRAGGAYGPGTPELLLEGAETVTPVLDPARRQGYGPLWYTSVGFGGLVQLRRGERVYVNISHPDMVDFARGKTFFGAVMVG
Description: as §1

[5] = target: T3, recombinant human lymphotoxin α2/β1 (R&D systems, cat. No 679-TX-010/CF) (human, UniProt P01374 35-205; Q06643 49-244, limits assumed); experiment: direct ELISA, protein coated
T3 construct: Bought heterotrimer; also called human lymphotoxin alpha2/beta1
T3 sequence (looked up) 1: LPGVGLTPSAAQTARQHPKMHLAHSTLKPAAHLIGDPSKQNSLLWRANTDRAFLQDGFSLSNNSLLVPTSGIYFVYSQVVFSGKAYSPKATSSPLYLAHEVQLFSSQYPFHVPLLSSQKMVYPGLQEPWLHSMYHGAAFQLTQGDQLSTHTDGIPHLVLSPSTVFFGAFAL
T3 sequence (looked up) 2: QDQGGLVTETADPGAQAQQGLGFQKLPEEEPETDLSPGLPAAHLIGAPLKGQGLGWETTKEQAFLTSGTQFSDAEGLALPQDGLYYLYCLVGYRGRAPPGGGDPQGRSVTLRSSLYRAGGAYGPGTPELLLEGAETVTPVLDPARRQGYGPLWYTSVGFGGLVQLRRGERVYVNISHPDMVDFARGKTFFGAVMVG
Description: as §1

[6] = target: T4, recombinant human TNF beta/TNFSF1 (human, UniProt P01374 35-205, limits assumed); experiment: direct ELISA, protein coated
T4 construct: Bought protein; also called R&D systems cat; No. 211-TB-010/CF
T4 sequence (looked up): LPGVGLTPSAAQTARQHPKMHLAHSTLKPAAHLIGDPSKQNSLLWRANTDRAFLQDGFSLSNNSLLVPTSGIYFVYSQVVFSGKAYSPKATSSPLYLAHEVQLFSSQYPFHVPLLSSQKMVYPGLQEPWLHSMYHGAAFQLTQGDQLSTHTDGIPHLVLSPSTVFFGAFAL
Description: as §1

[7] = target: T5, cynomolgus monkey TNF alpha (cynomolgus monkey, UniProt P79337 77-233); experiment: ELISA, TNF alpha protein coated, Protein L-HRP detection
T5 construct: Bought protein; also called Sinobiological cat. no; 90018 CNAE
Description: as §1

rhesus macaque TNF alpha = target: T6, rhesus macaque TNF alpha (rhesus macaque, UniProt P48094 77-233); experiment: as above
T6 construct: Bought protein; also called R&D Systems cat. no; 1070-RM-025/CF
Description: as §1

canine TNF alpha = target: T7, canine TNF alpha (canine, UniProt P51742 77-233); experiment: as above
T7 construct: Bought protein; also called dog TNF alpha; Kingfisher Biotech cat. no; RP0261D-025
Description: as §1

feline TNF alpha = target: T8, feline TNF alpha (feline, UniProt P19101 77-233); experiment: as above
T8 construct: Bought protein; also called R&D systems cat; No 2586FTCF
Description: as §1

Sequence of recombinant human (rh) TNF alpha (P01375 77-233 limits assumed): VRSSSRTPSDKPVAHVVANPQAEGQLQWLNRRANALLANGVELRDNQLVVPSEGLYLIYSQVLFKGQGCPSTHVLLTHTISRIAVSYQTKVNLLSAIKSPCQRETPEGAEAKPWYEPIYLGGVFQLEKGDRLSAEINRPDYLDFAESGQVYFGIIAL
Sequence of transmembrane (tm) human TNF alpha, A1-12 variant, on CHO cells (P01375 other isoform, or with tags, fused parts or gaps mutant limits assumed): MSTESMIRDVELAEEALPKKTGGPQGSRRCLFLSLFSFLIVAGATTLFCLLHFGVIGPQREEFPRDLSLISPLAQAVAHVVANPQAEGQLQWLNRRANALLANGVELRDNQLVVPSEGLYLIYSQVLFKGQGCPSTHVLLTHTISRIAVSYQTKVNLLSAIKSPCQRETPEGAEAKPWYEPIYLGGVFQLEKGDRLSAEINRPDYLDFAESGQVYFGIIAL
T8 sequence (P19101 77-233 limits assumed): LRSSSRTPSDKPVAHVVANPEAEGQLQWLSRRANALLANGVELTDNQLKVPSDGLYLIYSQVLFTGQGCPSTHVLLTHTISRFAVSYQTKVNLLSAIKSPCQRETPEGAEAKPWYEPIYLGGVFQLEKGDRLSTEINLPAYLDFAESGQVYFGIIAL
T6 sequence (P48094 77-233 limits assumed): as the sequence (P01375 77-233 limits assumed) above, with R44T, T72N, R138L counted along it
T5 sequence (P79337 77-233 limits assumed): as the sequence (P01375 77-233 limits assumed) above, with L37V, R44T, T72N, R138L counted along it
T7 sequence (P51742 77-233 limits assumed): as the sequence (P19101 77-233 limits assumed) above, with L1V, R2K, K49I, T65K, A109T, T134A, A140N counted along it

B1: positive control scFv DLX105 (scFv)
scFv: MADIVMTQSPSSLSASVGDRVTLTCTASQSVSNDVVWYQQRPGKAPKLLIYSAFNRYTGVPSRFSGRGYGTDFTLTISSLQPEDVAVYYCQQDYNSPRTFGQGTKLEVKRGGGGSGGGGSGGGGSSGGGSQVQLVQSGAEVKKPGASVKVSCTASGYTFTHYGMNWVRQAPGKGLEWMGWINTYTGEPTYADKFKDRFTFSLETSASTVYMELTSLTSDDTAVYYCARERGDAMDYWGQGTLVTVSS
IC50, inhibition of rhTNF alpha (1.4 pM) cytotoxicity on PK-15 cells [1]: 260 pM
IC50, inhibition of tmTNF alpha activity on HEK-Dual TNF alpha-sensitive reporter cells (luciferase) [2]: 32 nM

B2: scFv1 (scFv)
scFv: EIVMTQSPSTLSASVGDRVIITCQASQSISSYLAWYQQKPGKAPKLLIYWASTLASGVPSRFSGSGSGTEFTLTISSLQPDDFATYYCQSYYYTSNNSDGFWAFGQGTKLTVLGGGGGSGGGGSGGGGSGGGGSEVQLVESGGGLVQPGGSLRLSCKASGIDFSNSGITWVRQAPGKGLEWVGYIYPGFGIRNYANSVRGRFTISRDTSKNTVYLQMNSLRAEDTAVYYCARDPIYASSSGYADIWGQGTLVTVSS
IC50, inhibition of rhTNF alpha (1.4 pM) cytotoxicity on PK-15 cells [1]: 30 pM
IC50, inhibition of tmTNF alpha activity on HEK-Dual TNF alpha-sensitive reporter cells (luciferase) [2]: 50 nM
binding result [3]: no binding (tested: 40 nM)
binding result [4]: no binding (tested: 40 nM)
binding result [5]: no binding (tested: 40 nM)
binding result [6]: no binding (tested: 40 nM)
binding result [7]: binds
binding result (rhesus macaque TNF alpha): binds
binding result (canine TNF alpha): binds
binding result (feline TNF alpha): binds
